From PMC5607099 (Molecular microbiology, 2017) come the findings set out here.

The data set “semi-native SDS-PAGE” concerns the molecule itself. Put plainly: semi-native SDS-PAGE.
For data set [1], the target named is T1, His-tagged TamA (purified recombinant) (E. coli, UniProt P0ADE4 22-577).
T1 sequence (looked up): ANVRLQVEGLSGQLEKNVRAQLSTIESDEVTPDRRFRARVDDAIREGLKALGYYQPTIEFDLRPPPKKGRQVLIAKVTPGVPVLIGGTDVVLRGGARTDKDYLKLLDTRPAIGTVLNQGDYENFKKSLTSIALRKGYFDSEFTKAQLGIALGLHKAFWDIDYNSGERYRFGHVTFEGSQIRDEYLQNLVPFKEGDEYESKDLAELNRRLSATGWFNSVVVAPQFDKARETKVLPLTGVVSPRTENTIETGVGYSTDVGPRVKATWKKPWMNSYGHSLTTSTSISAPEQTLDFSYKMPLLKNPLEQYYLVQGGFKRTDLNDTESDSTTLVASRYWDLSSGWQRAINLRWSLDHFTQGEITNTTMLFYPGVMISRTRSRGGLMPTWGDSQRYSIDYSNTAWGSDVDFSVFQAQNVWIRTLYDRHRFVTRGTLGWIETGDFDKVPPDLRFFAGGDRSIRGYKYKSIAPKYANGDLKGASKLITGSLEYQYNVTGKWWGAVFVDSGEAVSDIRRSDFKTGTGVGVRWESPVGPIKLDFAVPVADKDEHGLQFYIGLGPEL
In words: peptide or protein array.

Data set [2] deals with T1, His-tagged TamA (purified recombinant). Put plainly: cross-linking.
Data set [3] deals with His-tagged BamA (purified recombinant) (E. coli, UniProt P0A940 21-810). Put plainly: peptide or protein array.

Ends that are not written are not given here. * marks the point of attachment. Biotin = O=C1N[C@H]2[C@H](CS[C@H]2CCCCC(=O)*)N1

B1: His-tagged OmpF (natural protein, UniProt P02931 23-362, looked up)
chain: AEIYNKDGNKVDLYGKAVGLHYFSKGNGENSYGGNGDMTYARLGFKGETQINSDLTGYGQWEYNFQGNNSEGADAQTGNKTRLAFAGLKYADVGSFDYGRNYGVVYDALGYTDMLPEFGGDTAYSDDFFVGRVGGVATYRNSNFFGLVDGLNFAVQYLGKNERDTARRSNGDGVGGSISYEYEGFGIVGAYGAADRTNLQEAQPLGNGKKAEQWATGLKYDANNIYLAANYGETRNATPITNKFTNTSGFANKTQDVLLVAQYQFDFGLRPSIAYTKSKAKDVEGIGDVDLVNYFEVGATYYFNKNMSTYVDYIINQIDSDNKLGVGSDDTVAVGIVYQF
Turning to B1, in the data set “semi-native SDS-PAGE”, the “stoichiometry N” value was 3.

For FDGINFRGAQLASDDNMLSA [FimD peptide 6 (β-strand 6), on the array], the binding result in data set [1] is reported as “binds”.

Consider Biotin-FDGINFRGAQLASDDNMLK [Biotin-FDGINFRGAQLASDDNMLK (FimD peptide 6 with N-terminal biotin and C-terminal lysine)], for which the binding result in data set [2] is on record as “binds”.

For GGYGNANIGYSHSDDIKQSA [FimD peptide 23 (β-strand 23)], in data set [1], the binding result is on record as “binds”.

Regarding GGNSHYAYLNLQSGLNIGAA [FimD peptide 2 (β-strand 2)], in data set [3], the binding result was “binds”.

INAGLLNYNFSGNSVQNRSA [FimD peptide 1 (β-strand 1)]: in data set [3], the binding result is reported as “binds”.

As a reminder, the stoichiometry N is the number of molecules, sites or subunits per partner or assembly.
